Series [1] has as its system ZFN 9674 (GR exon 3 four-finger ZFP-FokI) (synthetic). As to the kind of experiment: cell_activity. The note with it: paired with 9666; Ad5/F35 moi 100, CD8+ T-cells after dexamethasone selection; also Cel I cleavage in K562 (FIG. 3A).
The test system of series [2] is ZFN 9666 (GR exon 3 four-finger ZFP-FokI) (synthetic). As to the kind of experiment: cell_activity. The following applies: paired with 9674; Ad5/F35 moi 100, CD8+ T-cells after dexamethasone selection; also Cel I cleavage in K562 (FIG. 3A).

“GTTGAGGAGCTG (double strand) [GR exon 3 antisense target (nt 1353-1364)]” registered an activity (% GR alleles mutated) in series [1] of 70.

“CAACAGGACCAC (double strand) [GR exon 3 sense target (nt 1370-1381)]”: the activity (% GR alleles mutated) in series [2] came to 70.

The values above are taken from US20080188000.
